PMC2814181

Assays:
[1] = target: Neptune (mKate M41G S61C S158C Y194F); assay: SEC-MALS
[2] = target: Neptune (mKate M41G S61C S158C Y194F); assay: native gel or EMSA
[3] = target: Neptune (mKate M41G S61C S158C Y194F); assay: AUC
[4] = target: Neptune, His tag removed by TEV protease (crystallized form); assay: crystal structure
dTomato [5] = assay: SEC-MALS
dTomato [6] = assay: SDS-PAGE of unboiled samples
dTomato [7] = assay: native gel or EMSA
mKate [8] = assay: SEC-MALS
mKate [9] = assay: native gel or EMSA

## Neptune (mKate M41G S61C S158C Y194F)
[1]
  stoichiometry N: 2
[2]
  stoichiometry N: 2
[3]
  Kd: 500 nM

## Neptune, His tag removed by TEV protease (crystallized form)
[4]
  stoichiometry N: 4

## dTomato
dTomato [5]
  stoichiometry N: 2
dTomato [6]
  stoichiometry N: 2
dTomato [7]
  stoichiometry N: 2

## mKate
mKate [8]
  stoichiometry N: 2
mKate [9]
  stoichiometry N: 2
